Results published in patent publication US20240124607A1 (Merck Sharp & Dohme, published 2024).

T1: human CEACAM5 on cells (human, UniProt P06731 35-685)
T1 construct: tumour cell lines with endogenous CEACAM5, or B16F10 engineered to express hCEACAM5; also called CEACAM5 on MKN-45, HPAF-II, SK-CO-1, LoVo, BxPC-3, Kato-III, LS-174T, ZR-75-30; hCEACAM5-B16F10
T1 sequence: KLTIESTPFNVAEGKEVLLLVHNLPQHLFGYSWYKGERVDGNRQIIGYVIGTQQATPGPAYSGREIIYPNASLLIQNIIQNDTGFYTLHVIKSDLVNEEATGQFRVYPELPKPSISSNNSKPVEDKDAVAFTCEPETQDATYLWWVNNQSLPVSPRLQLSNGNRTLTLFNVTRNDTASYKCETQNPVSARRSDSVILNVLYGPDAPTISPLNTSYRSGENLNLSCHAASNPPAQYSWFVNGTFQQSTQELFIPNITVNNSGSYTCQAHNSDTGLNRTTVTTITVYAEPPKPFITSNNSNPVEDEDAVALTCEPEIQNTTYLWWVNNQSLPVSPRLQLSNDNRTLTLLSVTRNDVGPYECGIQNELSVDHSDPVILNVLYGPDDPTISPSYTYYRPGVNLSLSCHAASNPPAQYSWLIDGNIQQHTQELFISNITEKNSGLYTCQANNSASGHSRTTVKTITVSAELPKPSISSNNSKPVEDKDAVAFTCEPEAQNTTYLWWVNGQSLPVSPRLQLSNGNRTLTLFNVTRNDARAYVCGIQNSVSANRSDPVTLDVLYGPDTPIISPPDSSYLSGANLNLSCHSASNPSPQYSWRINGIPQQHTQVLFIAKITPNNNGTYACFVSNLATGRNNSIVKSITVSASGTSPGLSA

T2: Human CEACAM5 I112V (human, UniProt P06731 35-685, limits assumed)
T2 sequence: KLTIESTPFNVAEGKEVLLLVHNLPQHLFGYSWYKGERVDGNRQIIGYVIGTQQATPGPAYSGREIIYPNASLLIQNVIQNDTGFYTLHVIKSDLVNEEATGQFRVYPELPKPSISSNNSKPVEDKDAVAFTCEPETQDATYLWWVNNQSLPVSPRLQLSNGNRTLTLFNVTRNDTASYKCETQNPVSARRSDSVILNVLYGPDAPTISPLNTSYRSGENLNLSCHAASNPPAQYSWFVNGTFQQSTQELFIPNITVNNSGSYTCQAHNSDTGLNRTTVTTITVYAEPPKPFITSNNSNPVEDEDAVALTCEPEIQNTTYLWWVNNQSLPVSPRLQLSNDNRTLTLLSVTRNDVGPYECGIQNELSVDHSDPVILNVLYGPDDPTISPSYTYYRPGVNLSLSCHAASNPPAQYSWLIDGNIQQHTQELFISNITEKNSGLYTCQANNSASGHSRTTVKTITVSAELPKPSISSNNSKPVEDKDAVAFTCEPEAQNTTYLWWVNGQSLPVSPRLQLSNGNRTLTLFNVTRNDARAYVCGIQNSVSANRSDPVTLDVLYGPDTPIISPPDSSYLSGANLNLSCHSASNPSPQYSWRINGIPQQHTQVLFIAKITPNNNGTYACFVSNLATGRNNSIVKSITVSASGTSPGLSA

T3: Human CEACAM5 (K398) (human, UniProt P06731 35-685, limits assumed)
T3 construct: also called K398 allele
T3 sequence: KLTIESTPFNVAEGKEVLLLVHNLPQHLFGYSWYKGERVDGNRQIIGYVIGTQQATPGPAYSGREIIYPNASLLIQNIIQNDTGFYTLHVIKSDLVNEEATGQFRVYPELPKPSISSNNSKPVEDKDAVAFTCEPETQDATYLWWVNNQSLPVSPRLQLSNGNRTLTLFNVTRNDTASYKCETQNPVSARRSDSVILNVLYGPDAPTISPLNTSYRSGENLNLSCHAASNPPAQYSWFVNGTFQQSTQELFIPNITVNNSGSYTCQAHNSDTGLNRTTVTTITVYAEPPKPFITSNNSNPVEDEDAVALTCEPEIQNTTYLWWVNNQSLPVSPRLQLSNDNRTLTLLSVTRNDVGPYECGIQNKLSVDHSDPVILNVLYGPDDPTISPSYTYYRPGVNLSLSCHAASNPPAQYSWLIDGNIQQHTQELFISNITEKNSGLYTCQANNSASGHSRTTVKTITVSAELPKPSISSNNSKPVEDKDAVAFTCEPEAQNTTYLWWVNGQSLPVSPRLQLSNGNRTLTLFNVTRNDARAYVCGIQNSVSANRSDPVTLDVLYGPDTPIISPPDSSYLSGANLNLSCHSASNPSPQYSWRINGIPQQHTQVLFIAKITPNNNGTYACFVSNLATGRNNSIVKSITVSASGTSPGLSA

T4: Human CEACAM5 (E398) (human, UniProt P06731 35-685, limits assumed)
T4 construct: also called hCEACAM5
T4 sequence: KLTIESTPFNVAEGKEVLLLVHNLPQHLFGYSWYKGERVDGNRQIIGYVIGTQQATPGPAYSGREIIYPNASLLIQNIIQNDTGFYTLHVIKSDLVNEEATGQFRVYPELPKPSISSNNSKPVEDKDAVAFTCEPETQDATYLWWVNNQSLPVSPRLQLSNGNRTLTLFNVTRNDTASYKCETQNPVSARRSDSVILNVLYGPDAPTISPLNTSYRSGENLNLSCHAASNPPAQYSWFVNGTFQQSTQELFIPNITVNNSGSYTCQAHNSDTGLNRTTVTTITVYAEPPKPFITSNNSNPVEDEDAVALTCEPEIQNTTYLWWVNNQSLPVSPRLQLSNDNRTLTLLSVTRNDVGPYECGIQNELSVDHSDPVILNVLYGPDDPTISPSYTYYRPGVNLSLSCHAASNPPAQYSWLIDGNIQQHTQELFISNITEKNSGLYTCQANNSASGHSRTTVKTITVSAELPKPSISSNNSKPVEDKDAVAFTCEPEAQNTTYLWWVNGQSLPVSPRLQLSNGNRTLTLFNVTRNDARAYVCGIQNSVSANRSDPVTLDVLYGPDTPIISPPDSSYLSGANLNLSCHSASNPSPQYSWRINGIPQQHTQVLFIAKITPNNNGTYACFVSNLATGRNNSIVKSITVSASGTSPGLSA


What was measured:
human CEACAM5 on cells = molecular target: T1, human CEACAM5 on cells; experiment: flow cytometry, MKN-45 cells
Protocol: MKN-45 and HPAF-II human cancer cell lines were diluted into FACS buffer and 100,000 cells of each cell type were seeded per well in duplicate into 96-well plates for FACS staining. The cells were washed with PBS, incubated in a 1:2000 dilution of live/dead dye in PBS for 15 minutes, and then washed with FACS buffer. AB0264, AB0411, AB0466, and AB0621 were diluted into FACS buffer, and 50 μl of each diluted TriNKET was added to the cells. After incubation on ice for 30-120 minutes, the cells were washed with FACS buffer. Anti-human IgG-Fc secondary antibody was diluted into FACS buffer, and 50 μl was added per well for detection of the bound TriNKETs. The cells were incubated for 30-60 minutes on ice and then washed with FACS buffer. 50 μl of fixation buffer was added to each well and the cells were incubated for 10 minutes at room temperature. The cells were washed with FACS buffer and resuspended in FACS buffer for analysis with ThermoFisher Attune NxT, BD FACS Celesta SN #H66034400085, or BD FACS Celesta SN #H66034400160.

Human CEACAM5 I112V = molecular target: T2, Human CEACAM5 I112V; experiment: SPR, 37C, pH 7.4
Human CEACAM5 (K398) = molecular target: T3, Human CEACAM5 (K398); experiment: SPR, 37C, pH 7.4
Human CEACAM5 (E398) = molecular target: T4, Human CEACAM5 (E398); experiment: SPR, 37C, pH 7.4

Row | EC50 (human CEACAM5 on cells) [nM] | Max FOB (human CEACAM5 on cells) [fold over background] | Kd (Human CEACAM5 I112V) [nM] | kon (Human CEACAM5 I112V) [M⁻¹ s⁻¹] | Kd (Human CEACAM5 (K398)) [nM] | kon (Human CEACAM5 (K398)) [M⁻¹ s⁻¹] | Kd (Human CEACAM5 (E398)) [nM] | kon (Human CEACAM5 (E398)) [M⁻¹ s⁻¹] | Binder
1 | 15.2 | 111 | 11 | 130000 | 6.3 | 220000 | 7.2 | 190000 | AB0466 F3' CEACAM5 TriNKET (bispecific antibody, human IgG1, kappa) not shown heavy: EVQLVESGGGLVKPGGSLRLSCAASGFTFSSYSMNWVRQAPGKGLEWVSSISSSSSYIYYADSVKGRFTISRDNAKNSLYLQMNSLRAEDTAVYYCARGAPIGAAAGWFDPWGQGTLVTVSSASTKGPSVFPLAPSSKSTSGGTAALGCLVKDYFPEPVTVSWNSGALTSGVHTFPAVLQSSGLYSLSSVVTVPSSSLGTQTYICNVNHKPSNTKVDKKVEPKSCDKTHTCPPCPAPELLGGPSVFLFPPKPKDTLMISRTPEVTCVVVDVSHEDPEVKFNWYVDGVEVHNAKTKPREEQYNSTYRVVSVLTVLHQDWLNGKEYKCKVSNKALPAPIEKTISKAKGQPREPQVCTLPPSRDELTENQVSLTCLVKGFYPSDIAVEWESNGQPENNYKTTPPVLDSDGSFFLYSWLTVDKSRWQQGNVFSCSVMHEALHNHYTQKSLSLSPG light: DIQMTQSPSSVSASVGDRVTITCRASQGISSWLAWYQQKPGKAPKLLIYAASSLQSGVPSRFSGSGSGTDFTLTISSLQPEDFATYYCQQGVSFPRTFGGGTKVEIKRTVAAPSVFIFPPSDEQLKSGTASVVCLLNNFYPREAKVQWKVDNALQSGNSQESVTEQDSKDSTYSLSSTLTLSKADYEKHKVYACEVTHQGLSSPVTKSFNRGEC
2 | 20.6 | 51.3 | 38 | 42000 | 19 | 86000 | 17 | 100000 | AB0621 F3' CEACAM5 TriNKET (bispecific antibody, human IgG1, kappa) DIVMTQSPDSLAVSLGERATINCKSSHSLLYGNFQNNYLAWYQQKPGQPPKLLIYWASTRESGVPDRFSGSGSGTDFTLTISSLQAEDVAVYYCQQYYSYPYTFGCGTKLEIKGGGGSGGGGSGGGGSGGGGSQVQLVQSGAEVKKPGASVKVSCKASGYTFTAYTIHWVRQAPGQCLEWMGYINPSSGYTEYNQKFKDRTTLTADTSISTAYMELSRLRSDDTAVYYCTREGGLLWFDYWGQGTLVTVSSGSDKTHTCPPCPAPELLGGPSVFLFPPKPKDTLMISRTPEVTCVVVDVSHEDPEVKFNWYVDGVEVHNAKTKPREEQYNSTYRVVSVLTVLHQDWLNGKEYKCKVSNKALPAPIEKTISKAKGQPREPRVYTLPPCRDELTKNQVSLTCLVKGFYPSDIAVEWESNGQPENNYKTTPPVLVSDGSFTLYSKLTVDKSRWQQGNVFSCSVMHEALHNHYTQKSLSLSPG heavy: EVQLVESGGGLVKPGGSLRLSCAASGFTFSSYSMNWVRQAPGKGLEWVSSISSSSSYIYYADSVKGRFTISRDNAKNSLYLQMNSLRAEDTAVYYCARGAPIGAAAGWFDPWGQGTLVTVSSASTKGPSVFPLAPSSKSTSGGTAALGCLVKDYFPEPVTVSWNSGALTSGVHTFPAVLQSSGLYSLSSVVTVPSSSLGTQTYICNVNHKPSNTKVDKKVEPKSCDKTHTCPPCPAPELLGGPSVFLFPPKPKDTLMISRTPEVTCVVVDVSHEDPEVKFNWYVDGVEVHNAKTKPREEQYNSTYRVVSVLTVLHQDWLNGKEYKCKVSNKALPAPIEKTISKAKGQPREPQVCTLPPSRDELTENQVSLTCLVKGFYPSDIAVEWESNGQPENNYKTTPPVLDSDGSFFLYSWLTVDKSRWQQGNVFSCSVMHEALHNHYTQKSLSLSPG light: DIQMTQSPSSVSASVGDRVTITCRASQGISSWLAWYQQKPGKAPKLLIYAASSLQSGVPSRFSGSGSGTDFTLTISSLQPEDFATYYCQQGVSFPRTFGGGTKVEIKRTVAAPSVFIFPPSDEQLKSGTASVVCLLNNFYPREAKVQWKVDNALQSGNSQESVTEQDSKDSTYSLSSTLTLSKADYEKHKVYACEVTHQGLSSPVTKSFNRGEC
3 | 24.6 | 55 | – | – | – | – | – | – | AB0264 F3' CEACAM5 TriNKET (bispecific antibody, human IgG1, kappa) DIVMTQSPDSLAVSLGERATINCKSSHSLLYGNFQNNYLAWYQQKPGQPPKLLIYWASTRESGVPDRFSGSGSGTDFTLTISSLQAEDVAVYYCQQYYSYPYTFGCGTKLEIKGGGGSGGGGSGGGGSGGGGSQVQLVQSGAEVKKPGASVKVSCKASGYTFTAYTIHWVRQAPGQCLEWMGYINPSSGYTEYNQKFKDRTTLTADTSIPTAYMELSRLRSDDTAVYYCTREGGLLWFDYWGQGTLVTVSSGSDKTHTCPPCPAPELLGGPSVFLFPPKPKDTLMISRTPEVTCVVVDVSHEDPEVKFNWYVDGVEVHNAKTKPREEQYNSTYRVVSVLTVLHQDWLNGKEYKCKVSNKALPAPIEKTISKAKGQPREPRVYTLPPCRDELTKNQVSLTCLVKGFYPSDIAVEWESNGQPENNYKTTPPVLVSDGSFTLYSKLTVDKSRWQQGNVFSCSVMHEALHNHYTQKSLSLSPG heavy: EVQLVESGGGLVKPGGSLRLSCAASGFTFSSYSMNWVRQAPGKGLEWVSSISSSSSYIYYADSVKGRFTISRDNAKNSLYLQMNSLRAEDTAVYYCARGAPIGAAAGWFDPWGQGTLVTVSSASTKGPSVFPLAPSSKSTSGGTAALGCLVKDYFPEPVTVSWNSGALTSGVHTFPAVLQSSGLYSLSSVVTVPSSSLGTQTYICNVNHKPSNTKVDKKVEPKSCDKTHTCPPCPAPELLGGPSVFLFPPKPKDTLMISRTPEVTCVVVDVSHEDPEVKFNWYVDGVEVHNAKTKPREEQYNSTYRVVSVLTVLHQDWLNGKEYKCKVSNKALPAPIEKTISKAKGQPREPQVCTLPPSRDELTENQVSLTCLVKGFYPSDIAVEWESNGQPENNYKTTPPVLDSDGSFFLYSWLTVDKSRWQQGNVFSCSVMHEALHNHYTQKSLSLSPG light: DIQMTQSPSSVSASVGDRVTITCRASQGISSWLAWYQQKPGKAPKLLIYAASSLQSGVPSRFSGSGSGTDFTLTISSLQPEDFATYYCQQGVSFPRTFGGGTKVEIKRTVAAPSVFIFPPSDEQLKSGTASVVCLLNNFYPREAKVQWKVDNALQSGNSQESVTEQDSKDSTYSLSSTLTLSKADYEKHKVYACEVTHQGLSSPVTKSFNRGEC
